The data set is described as follows: amyloid nucleation score (Sup35N fusion, yeast selection) (log enrichment); library NNK3; higher = more nucleation; inactive = no reads after selection. The method, boiled down: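 The nucleation score is the DiMSum log enrichment of output over input reads, centred on the mode score of non-aggregating sequences. Only sequences with 100 or more input reads were scored, using Illumina sequencing of input and output plasmid inserts. Psi-negative yeast expressing Sup35N fused to peptides of 20 random codons were induced 24 hours with 100 μM copper sulfate and grown 7 days at 30°C on medium lacking adenine and uracil.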

± gives the uncertainty stated by the source.

Turning to FYELEIV, the amyloid nucleation score entry is “inactive”.

Take IIRMMFISFN: the amyloid nucleation score is 1.84 ± 0.076. Turning to DKWFMSVPIISTRICGGCLG, the amyloid nucleation score entry is “inactive”. Then EHLPSSHP, with “inactive”; and GCNACVTSTCIRVVCGNLKC, with 0.715 ± 0.3.

For the substance QKLSCPMFLMAIIVSKITKM, the amyloid nucleation score entry is “inactive”. Take WKYRSKRWMMLSASVRLYSS: the amyloid nucleation score result was “inactive”. The same measure for TKEAY: “inactive”; for GWKAPLTLRRTLSALDFVLY: 0.371 ± 0.38; for VNSLATRNFIGTLCVVSHKR: “inactive”. Then YIDTW, with “inactive”. The same measure for TGLKYRLY: “inactive”; for MTVTGPQYLPWGLRHNA: “inactive”.

For the substance DSVFCVRLAKLVGLHSSF, the amyloid nucleation score result was “inactive”. The same measure for KEDCGGQVNKTSGASVSSLC: “inactive”; for TYCYTVVTASMDAFEG: “inactive”; for KLPSEISKNYT: “inactive”. Consider LRFGHHMGYEWHLSRKVGSK, for which the amyloid nucleation score result was “inactive”. The same measure for LLLSTRID: “inactive”. For the substance ESNRTFTKSTFFLTNEVKGL, the amyloid nucleation score entry was “inactive”. The same measure for TTDGFRVRSTLYNYICVWRY: “inactive”; for IEGSKSDNIGIVHDFMFES: “inactive”; for IVDGWR: “inactive”.

As to HFMMYMLQRVHELFILSKSM, the amyloid nucleation score result is “inactive”.

For the substance RGILFLV, the amyloid nucleation score result is “inactive”.

For the substance MKRCTVFEPLPKRRLVMYLE, the amyloid nucleation score result is “inactive”. Then WIDFLSRLTIRGSDMYHQEY, with 0.37 ± 0.29; and VYRGLQWECLDGIVAFRRER, with “inactive”. Then VRAMCLPHV, with “inactive”; and NCDCSIAEPESILRFESPRE, with “inactive”. On to NRALNW, for which the amyloid nucleation score entry was “inactive”. In turn, ECYLEIASDSYINLKFARIE had an amyloid nucleation score of 0.019 ± 0.73. For RYVIIMS, the amyloid nucleation score entry is “inactive”.

For the substance VVDYNKDQDGAMTASRGDRK, the amyloid nucleation score was -0.726 ± 1.5. Regarding VVERKGRSKKLVFVCLLILW, the amyloid nucleation score result is “inactive”. The same measure for YWCLYLNSNCKMW: 0.31 ± 0.44; for SGVSWTRPIWYLNWFTQSLW: “inactive”. The same measure for GRSMR: “inactive”; for LIRYPGRSEDTVRFWRERMG: “inactive”. The same measure for LSGVSWKLCVYCFTVRGAAL: 0.863 ± 0.22; for PYSKELVHVTSSSATFTRCE: “inactive”; for DSTVTSE: “inactive”. For LSCWNIRGWLRWS, the amyloid nucleation score result was “inactive”.

For the substance GYTNKLKWGHRITINAFVYR, the amyloid nucleation score was -0.267 ± 0.68. The same measure for DGGYFGNSWFIHGDSLFQMG: “inactive”; for GFWINVMISKTLRYGSKAWC: “inactive”. Then ECRHSEWTEYFPSMRFMQAY, with “inactive”; and LAYVLKDYFNCYGVIVVISL, with “inactive”. Then YTSEFVIAAWSLLFDDRYMS, with “inactive”. In the case of LCTLYWNGARWSRCFATTFY, the amyloid nucleation score result is “inactive”. Then WLLPQKGLMG, with “inactive”; and LSNTRLRNMFSRDRGASLEG, with “inactive”; and HDCGYQITYGDNRIVYMCFV, with “inactive”. The same measure for GLPFLSTMELLLLLMSKTMR: “inactive”; for FTLWYVFRCVRCNKVCSGTG: 0.087 ± 0.26. For the substance VRDCTSQLINDGNNLVPGMW, the amyloid nucleation score result was “inactive”. In the case of TRFDSVVMRKFYWVGSVRGL, the amyloid nucleation score entry was “inactive”. Then AIYVFIRLLYVNIHDTTPVR, with “inactive”; and YNKGRNY, with “inactive”; and TYLCGFHLYCC, with “inactive”. For the substance NYVLGGCNLGSSGCRVRLSC, the amyloid nucleation score entry is “inactive”.

For the substance CGLQLQCMVEVLVVCPEQLL, the amyloid nucleation score came out at 0.737 ± 0.16.

In turn, TYAIGLHMLGSMGKIPDWEQ gave an amyloid nucleation score of 1.25 ± 0.14. Turning to YRYVNN, the amyloid nucleation score result is “inactive”.

As for CDNYVLPNYRYLSGFFKFGL, the amyloid nucleation score entry was “inactive”. Then DPVEIRG, with “inactive”.

Consider LLSETAHLFVFT, for which the amyloid nucleation score result is “inactive”. Then NDIMKTCFFNTYAYHLSVVM, with “inactive”.

For RLGTM, the amyloid nucleation score result was “inactive”. Then PVLGPAEGITIGRGV, with “inactive”; and MNCDDAVDWCFII, with “inactive”; and LLCNESILKPVTPKWRDCKL, with “inactive”. Then RFIVHIYNMN, with 2.59 ± 0.059; and KHSDL, with “inactive”; and SNSSHRRYYGHVRRNL, with “inactive”. As to WNRAVCIMSNIWIMDLPVLK, the amyloid nucleation score entry is “inactive”. With NELGEIAYGCGFRVVCRCMR, the amyloid nucleation score result is “inactive”. The same measure for MCRSNFAWSPSHK: “inactive”; for SVLGVSTYSLCSSVNCIFRF: 2.74 ± 0.062. Then SGFYRENARILTV, with “inactive”; and FFVKEFLVLDICGMTLPFDI, with “inactive”. Then FVTVVGGLRWNVTFSERWSV, with 0.081 ± 0.61; and DLPVGLWKQESLSAGMYNSW, with “inactive”. FRAWYDTAMSQSLFLCRKGA: the amyloid nucleation score result was “inactive”.

As for LTPSECMENYRGFSDMRRCP, the amyloid nucleation score result is “inactive”. The same measure for SNSMPSGNSRMVCCRDPSFP: “inactive”; for SIDGMWTMYRRSVKYGDQFH: “inactive”. On to NNIFWMRFMFDPWRR, for which the amyloid nucleation score was 1.04 ± 0.21. As to RCLYTCPYADFSEPNSNLRQ, the amyloid nucleation score result is “inactive”. Then PPCYKI, with “inactive”; and VYSLMGS, with “inactive”; and QYVSSTFHV, with “inactive”.

AGTTEWRG: the amyloid nucleation score entry is “inactive”.

In the case of KAQAFLWPVPDIQ, the amyloid nucleation score was -0.571 ± 1.9. Then MMLFNSMWDIFCLMDGLH, with “inactive”. Then KLKPMPNWSRLSRDWVLCCS, with “inactive”; and WDGYCSRQDRLRFAYRLGVG, with “inactive”; and PYMITILHFISHATVLNTSV, with “inactive”. The same measure for SIIGGWCGNE: “inactive”; for NLNGFYSRGVIFR: “inactive”.

With SVELNTKLVRYEVLSRMYRA, the amyloid nucleation score entry was “inactive”. On to LNSVKAGFINTKDPVMDSMC, for which the amyloid nucleation score was -0.254 ± 0.84. Consider YGYSTSFSG, for which the amyloid nucleation score was found to be 0.586 ± 0.28. Then MMAFTVFISEQDYSGIIFYE, with “inactive”; and NRNATSCGKPAFNKWNYFCQ, with “inactive”; and ARMLRYRHIAS, with “inactive”. As to SHNLSWDIGHLGIV, the amyloid nucleation score result was “inactive”. In the case of GLWRLSCKSYAWHF, the amyloid nucleation score entry is “inactive”. Then WIKGVRIRPL, with “inactive”; and KRVKSPNILEMVNYAQ, with -0.487 ± 0.9; and QGNSIWMYLGWVNKTML, with “inactive”. The same measure for FPFSYVYSR: “inactive”; for WGICFVITYNIKIKYDHLMS: 1.18 ± 0.081; for YPSGPHDCYCHTLYEFPFFL: “inactive”. The same measure for KNTISCPCWYINRCLVYNNI: 0.97 ± 0.17; for GPVLGSCIRRH: “inactive”. YGIVYSCCIVSVIEDFKLLK returned an amyloid nucleation score of 2.57 ± 0.082.

On to SMDTSTPTIV, for which the amyloid nucleation score entry was “inactive”. Consider EYYLDMDLMFMMG, for which the amyloid nucleation score entry was “inactive”. Then CMFYLLVSLPWVAVTSVLRV, with “inactive”; and MRCILTLFSTDIICVLSCKC, with “inactive”. The same measure for NVYSPKRVLSGCLSPDISEF: “inactive”. Then YGMLFYIYYMPRIFQYAVNL, with 1.56 ± 0.065; and FLRPV, with “inactive”. In turn, SVTWSHFGNWVRGAGLVMHR had an amyloid nucleation score of 0.259 ± 0.39. Substance PTSVY showed an amyloid nucleation score of 0.481 ± 0.32. On to VSTRGITDMMLGDMAVVNVG, for which the amyloid nucleation score entry was “inactive”. With YRIWEQTLMFYVNLSRAKCF, the amyloid nucleation score result was “inactive”. Then YFKVFQVLNLNICYSYRMVN, with “inactive”; and VRLVGLCFYIAMSLPSSFFI, with “inactive”; and TPQPLIIAQIVASPSEKKLL, with “inactive”. The same measure for GSSVELVIQSS: 0.415 ± 0.28; for VWLCSLLQITFIYAEVTVSL: “inactive”.

The record behind these values is the supplement of paper PMC12042874.
